Among the data in PMC9352930 are Kd values, retold here.

In assay [1] the target is EWEµH fusion protein (EWE fused to FH CCP2-4 and CCP19-20) (human). Briefly: BLI; kinetics: EWE, EWEµH or EWEnH held on anti-penta his (His1K) biosensors, dilution series of C3b or iC3b; 20 mM HEPES pH 7.5, 150 mM NaCl, 30°C; 1:1 model.
The target in assay [2] is EWEnH fusion protein (EWE fused to FH CCP2-4) (human). The description is as above.

Broadly, the Kd is the concentration at which binding is half-saturated. Low values mean a tighter complex, high ones a looser complex. Turning to “C3b (proteolytic fragment of complement component C3) (from UniProt P01024 749-1663; P01024 749-1663) (domain or fragment)”, the Kd stood at 0.4 nM in assay [1] and 8.9 nM in assay [2].
For iC3b (domain or fragment), in that order: 2.9 nM and 7.1 nM.
